# Data reported in the DeepSol protein solubility set.
# Experiment: soluble on expression in E. coli; label from the status in PepcDB or PDB records
row,Sequence,soluble on expression in E. coli
1,SVADANGSSSSSFNFLIYGKTGWIGGLLGKLCEAQGITYTYGSGRLQDRQSIVADIESVKPSHVFNAAGVTGRPNVDWCESHKVETIRTNVAGTLTLADICREKGLVLINYATGCIFEYDSGHPLGSGIGFKEEDTPNFTGSFYSKTKAMVEELLKNYENVCTLRVRMPISSDLTNPRNFITKIARYEKVVDIPNSMTILDELLPISIEMAKRNLTGIYNFTNPGVVSHNEILEMYRDYIDPSFTWKNFTLEEQAKVIVAPRSNNELDATKLKTEFPELMSIKESLIKFVFEPNKKTEVKA,soluble
2,MLSSLRRVVPSLPRGSRSLTSQQIFDREKKFGCHNYKPLPVALSKGEGCFVWDVEGKKYFDFLAAYSAVNQGHCHPKLLKVVQEQASTLTLTSRAFYNNVLGEYEEYVTKLFKYDKVLPMNTGVEACESAVKLARRWAYDVKGVKDNEAVVVFAENNFWGRSIAAISASTDPDSFARFGPFVPGFKTVPYNNLKAVEDAIKDKNVAAFMVEPIQGEAGVVLPDPGYLKGVSDLCKKYNVLFITDEVQSGLGRSGKLLAHYHDNVRPDIVVLGKALSGGFYPVSAVLCDDNVMMNIKPGEHGSTYGGNPLACKVAIAALEILQEEKLVENSAVMGDLLMSKLKTLPKDIVSTVRGKGLFCAIVINKKYDAWKVCLKLKENGLLAKNTHGDIIRFAPPLCINKEQVEQAADIIIKTVTDFAKQN,not soluble
3,MNTFVFLPLAFFVLLESFEAQEPPGPTARLNMLDNYMKRLNLTDIHFSDPGGIVKVDTVVNKYQPLTEEEIIRKMKKTVNDTAYDIANGKDPDLIEKLDKKTVQLPKPIRSRPQF,not soluble
4,MGSDKIHHHHHHMIEKPNAICLKNRKIIKVTGEEATHFLQALITTDVKKIGLQEIFPGALLSPQGKVLADFLIGKREDGYFIDIFSSLSDLLYKRLLLYKMRTKVEIMQPLQEFVTVSWENETDSLNFYSSFIDKRFPAKEKIIRIYGETPFLASECHDNWNRLRIRYAIPESDKDYEIGKVFPHDINYDQINGLAFNKGCYIGQEVVSRMHHRRAARRRILLVKSQHELIPGANIVAGTKILGSLGTCAANEALALMRIDHIKDAMDHNTPFTVKDVPVTISIAENMNFTFPESTV,not soluble
5,SSTWLSEAEMIALAGLLQMSQGEQTPNCVASSLPSTSCPDPVSVSEDPGPSGDQSCSGTDT,soluble
6,MGSDKIHHHHHHMSSDVQKGDNLETPGARDLLLQTASNIMREGDVVDISLSELSLRSGLNSALVKYYFGNKAGLLKALLDRDMENIVKSVDALLAKDDMSPEAKLRRHISKCIDTYYDYPYLNRLLMRLVRDSDEAEAKRIADQYLLPLHRAYNRFIGEGVKAGVFRPINPQLFYFTVTGAADRFFSARLVLKHCFDQDTLTEQLRDSYREHTVDFIMAGILAH,not soluble
7,MQSSLSFSCGVKSTMAKSPVEVNLIPIEATPETFAEYGQVIEASRDGAGYGPNDAQLDLSKGIPRLYILRLKETPLGFFKITHHAKVTQCLGSIGGDIWYMGVAKPSLIEDDDDGRRVDTVKAKSGHLYIPPEVEEIRVFRFSGPKFVKLHRGTWHAGPLFSGSSIMDFYNLELSNTNVVDHTSHDFTKNNGVSFRFDT,not soluble
8,MSVVAQVSGEEVTRLLAPIDPAVPAGLFDVEDETYQAIDQEMVKLGGLQEASIDWVYIEDASRQYLSQQCKHLRIVAHLSAAWLRSGCWEQWGCTLALLAGMLECYWEAAHPKPGPKGFLGKRKLVALVIDRLAEALPRLDRFTYTPTHAAAAQAALKRLQQQETVQLDTAALGELERLLGKYSELANGVGEAAVPKAPAATEKPAPLADVIATPVSRMSMGNERETRRAVLSMAELINQQDPYDATGYQLRRFGLWAHIQVAPQVRQGNRTELMAVPLDITRFYEEAIASKAVDPALLQRIEKSLTACPFWIRGSFLAATVATQLAMCEVAEAIRCATARFVQRMPSLQQLCFSDGMVFVDDQCLAWLKGTQGPSGQGATPQEFSGLREELVSQLETGGIEPLLLRLQGLQAGVRAPRERCHTTVIAADLLAARGVSWLAQDLCANVARTMQQTTASAWEPEVFERLQQYAASPVLAVQDKDQEPR,not soluble
9,MGSDKIHHHHHHQSTGQVTLGVLTDMSSVYADSAGKGSVAAVQLAIEDVGGKALGQPVKLVSADYQMKTDVALSIAREWFDRDGVDAIFDVVNSGTALAINNLVKDKKKLAFITAAAADQIGGTECNGYGIGFLYNFTSIVKTVVQAQLAKGYKTWFLMLPDAAYGDLMNAAIRRELTAGGGQIVGSVRFPFETQDFSSYLLQAKASGAQLIVSTSGGAANINIMKQAREFGLPSKTQKVGGMIDILTDVKSAGLRVMQGQEYATSFYWNMDDRTRAFAKRFYAKMGKMPTNNQAGGYSAALQYLKAVNAIGSKDPQKVFAYLKTIKFDDAVTRHGTLRPGGRLVRDMYLVRAKKPEDQKGDWDYYDVVATIGPEQAFGPLSESRCAMDK,not soluble
10,MRRYLMDYSQYNLEKTGYLKEDFRLFHINDQTKKDFSYHYHDFHKIIVFISGKVTYHIEGKAYHLKPRDILLVSQGAIHKPEIDPSVPYERYIFWIRDDLSCQELNTCFQKANDRSFNLVRADSALQERLKDLLPEIEQTLQNKHFGDTVLRNALFTQFMIYINRIFLRTSSSPDKKTYSSDTQ,not soluble
11,MSLSKNKLKTPHCMLNLTFNWLSFCEMRGTRDTVEDMFVCKANPVDNQACMAIFDGHGGSKTSYYACGVFIKLYTSAKMIFSKQWLRGTMRGISESVKTKLFPDGSTAAVAMFKDRKLITSTIGDSRIIVMTEDGKLKYENRVHKPTQREEFERVHEAGGSVYGFRLQNSLALSRTMGDIAVPGISAESEEDEVNLDEEDRWVIVGCDGVFDELPMSFVGELCKKAKSAIGLSHSLRTAAFAARSQDNITVVALDVKTLYSKVELASDMNSTMREGHHHHHH,not soluble
12,MVIATIQAEDHSQQSGTQQETTTDTGGGKNVGYIDAGDWLSYAGTPVNIPSSGSYLIEYRVASQNGGGSLTFEEAGGAPVHGTIAIPATGGWQTWTTIQHTVNLSAGSHQFGIKANAGGWNLNWIRINKTH,soluble
13,MGMVSDAVIRHQGKVIAVYPDGILPLEPPRQNASQLYLTSGMDERKRKLIDLGEAFVILAGGFGTMEESFQLLTEMSINQTAVRPVIFVGRKFYQPLFDLLRLQLKEGMISKEVIDAISLVDTAEETIELLGDLKLEQVVLEHHHHHH,not soluble
14,MPRTFEEECDFIDRLTDTKFRIKKGFVPNMNVEGRFYVNNSLEQLMFDELKFSCDGQGIGGFLPAVRQIANVASLPGIVGHSIGLPDIHSGYGFSIGNIAAFDVGNPESVISPGGVGFDINCGVRLLRTNLFEENVKPLKEQLTQSLFDHIPVGVGSRGAIPMLASDLVECLEMGMDWTLREGYSWAEDKEHCEEYGRMLQADASKVSLRAKKRGLPQLGTLGAGNHYAEVQVVDEIYDKHAASTMGIDEEGQVVVMLHCGSRGLGHQVATDSLVEMEKAMARDGIVVNDKQLACARINSVEGKNYFSGMAAAANFAWVNRSCITFCVRNAFQKTFGMSADDMDMQVIYDVSHNVAKMEEHMVDGRPRQLCVHRKGATRAFPAHHPLIPVDYQLIGQPVLIGGSMGTCSYVLTGTEQGLVETFGTTCHGAGRALSRAKSRRTITWDSVIDDLKKKEISIRIASPKLIMEEAPESYKNVTDVVDTCDAAGISKKAVKLRPIAVIKG,not soluble
15,MTGGTGADAASAGASSTRPELRGERCLPPAGPVKVTPDDPRYLNLKLRGANSRFNGEPDYIHLVGSTQQVADAVEETVRTGKRVAVRSGGHCFEDFVDNPDVKVIIDMSLLTEIAYDPSMNAFLIEPGNTLSEVYEKLYLGWNVTIPGGVCGGVGVGGHICGGGYGPLSRQFGSVVDYLYAVEVVVVNKQGKARVIVATRERDDPHHDLWWAHTGGGGGNFGVVTKYWMRVPEDVGRNPERLLPKPPATLLTSTVTFDWAGMTEAAFSRLLRNHGEWYERNSGPDSPYTGLWSQLMIGNEVPGMGESGFMMPIQVDATRPDARRLLDAHIEAVIDGVPPAEVPEPIEQRWLASTPGRGGRGPASKTKAGYLRKRLTDRQIQAVYENMTHMDGIDYGAVWLIGYGGKVNTVDPAATALPQRDAILKVNYITGWANPGNEAKHLTWVRKLYADVYAETGGVPVPNDVSDGAYINYPDSDLADPGLNTSGVPWHDLYYKGNHPRLRKVKAAYDPRNHFHHALSIRP,soluble
